Results from patent publication US20210246224A1 (Regeneron, published 2021).

B1: H4xH21362P2 (antibody, V domains shown)
VH: EVQLVESGGGLVQPGGSLRLSCAASGFTFSTYVMSWVRQAPGKGPEWVSGISGRTGTTYYADSVKGRFTISRDNSKNTLYLQMNSLRAEDTAVYYCASRITAAGRGYYYYYGMDVWGRGTTVTVSS
VL: not shown
notes: fully human antibody; also called anti-APLP2 parental antibody
B2: H4H13050P2 (antibody, V domains shown)
VH: QVQLVQSGPEVKKPGASVKVSCKASGYTFPNFGISWVRQAPGQGLEWMGWIAPYNVATNYAPKLQGRVTMTTDTSTSTAYMELRSLRSDDTAVYYCARWGAGYMGYYYYGMDVWGQGTTVTVSS
VL: not shown
notes: Names starting with H4 or H4H denote fully human antibodies; also called anti-HER2 parental antibody
B3: H4xH21371P2 (antibody, V domains shown)
VH: QVQLVQSGVEVKKPGASVKVSCKASGYTFTDYGISWVRQAPGQGLEWMGWISAHNGNTNYAQKLQGRVTMTTDTSTNTAYMELRSLRSDDTAVYYCARRNWKYFDYWGQGTLVTVSS
VL: not shown
notes: as for B1
B4: H4H25021D (bispecific antibody, IgG4, V domains shown)
VH 1: B2 VH
VH 2: B3 VH
VL: not shown
notes: Wild-type kappa CL and a modified (chimeric) IgG4 CH domain as set forth in US20140243504A1; also called bispecific anti-HER2xAPLP2 antibody
B5: H4H25018D-SMCC-DM1 (bispecific antibody, IgG4, V domains shown)
VH 1: QVQLQESGPGLVKPSQTLSLTCTVSGGSISSGHYFWSWIRQHPGKGLEWIGYIFYSGSTHYNPSLKSRLSISVDTSKNQFSLRLTSVTAADTAVYYCAREEGDYNFWDVDYVPGHFDYWGQGTLVTVSS
VH 2: EVQLVESGGGLVQPGRSLRLSCVASGFTFADYAMHWVRQAPGKGLEWVSGISWNSGNIDYADSVKGRFTISRDNAKNSLYLQMNSLRTEDTALYYCAKVRIVVAGYYYYYYGMDVWGQGTTVTVSS
VL: not shown
modifications: SMCC-DM1 on lysines, sites not stated
B6: H4H25019D-Compound I (bispecific antibody, V domains shown)
VH 1: B2 VH
VH 2: B5 VH 2
VL: not shown
modifications: Compound I on lysines, sites not stated
B7: H4H25018D-Compound I (bispecific antibody, V domains shown)
VH 1: B5 VH 1
VH 2: B5 VH 2
VL: not shown
modifications: Compound I on lysines, sites not stated
B8: H4H13055P2 (antibody, V domains shown)
VH: B5 VH 1
VL: not shown
notes: fully human antibody; also called anti-HER2 parental antibody
B9: H4H25019D-Compound II (bispecific antibody, V domains shown)
VH 1: B2 VH
VH 2: B5 VH 2
VL: not shown
modifications: Compound II on reduced interchain cysteines
B10: H4H25019D-SMCC-DM1 (bispecific antibody, V domains shown)
VH 1: B2 VH
VH 2: B5 VH 2
VL: not shown
modifications: SMCC-DM1 on lysines, sites not stated
B11: H4H25018D-Compound II (bispecific antibody, V domains shown)
VH 1: B5 VH 1
VH 2: B5 VH 2
VL: not shown
modifications: Compound II on reduced interchain cysteines
B12: H4H25014D (bispecific antibody, IgG4, V domains shown)
VH 1: B5 VH 1
VH 2: B1 VH
VL: not shown
notes: as for B4
B13: H4xH21387P2 (antibody, V domains shown)
VH: B5 VH 2
VL: not shown
notes: as for B1

Key:
[1] = target: T1, human APLP2 extracellular domain expressed with a C-terminal myc-myc-hexahistidine tag (human, UniProt Q06481 32-692); assay: SPR, antibody captured, hAPLP2-MMH injected, 25 C
T1 construct: also called hAPLP2-MMH; APLP2.mmh

[2] = target: T1, human APLP2 extracellular domain …; assay: SPR (Biacore 4000), antibody captured on anti-human Fc, hAPLP2-MMH injected, 37 C
Method: (§1) Equilibrium dissociation constants (KD values) for HER2 and APLP2 binding to purified anti-HER2xAPLP2 bispecific and parental antibodies were determined using a real-time surface plasmon resonance biosensor using a Biacore 4000 instrument. The Biacore sensor surface was first derivatized by amine coupling with a monoclonal mouse anti-human Fc antibody (GE, Cat #BR-1008-39) to capture anti-HER2xAPLP2 bispecific monoclonal antibodies. […] Kinetic association rate constant (ka) and dissociation rate constant (kd) were determined by fitting the real-time sensorgrams to a 1:1 binding model using Scrubber 2.0c curve fitting software. Binding dissociation equilibrium constants (KD) and dissociative half-lives (t1/2) were calculated from the kinetic rate constants as: […]

[3] = target: T2, human HER2 expressed on cells (cancer cell lines and normal primary cultures) (human, UniProt P04626 23-1255); assay: imaging, Alexa647-labelled antibody 10 ug/mL at 4 C on JIMT-1 cells; signal per nuclei, normalised to the highest cell line
T2 construct: Endogenous HER2 of the cell lines; the same cells also express APLP2; also called human epidermal growth factor receptor 2
Method: (§2) After, cells were washed twice with cold DMEM+10% FBS. […] After, the solution was replaced with DPBS/CM. Binding of the bispecific antibodies to each of the cell types was measured using an Image Xpress^Micro automatic microscope (Molecular Devices). […] (See also FIG. 2.)
(§3) The signal of antibody binding (mean intensity fluorescence of Alexa647) divided by the nuclei signals was determined for each condition using MetaXpress software (Molecular Devices). Values were normalized to the cell line displaying the highest antibody binding signal.

[4] = target: T2, human HER2 expressed on cells (cancer …); assay: imaging, Alexa647-labelled antibody 10 ug/mL at 4 C on MDA-MB-361 cells; signal per nuclei, normalised to the highest cell line
Method: as §2, §3

[5] = target: T2, human HER2 expressed on cells (cancer …); assay: imaging, Alexa647-labelled antibody 10 ug/mL at 4 C on NLE cells; signal per nuclei, normalised to the highest cell line
Method: as §2, §3

[6] = target: T2, human HER2 expressed on cells (cancer …); assay: imaging, Alexa647-labelled antibody 10 ug/mL at 4 C on MDA-MB-453 cells; signal per nuclei, normalised to the highest cell line
Method: as §2, §3

[7] = target: T2, human HER2 expressed on cells (cancer …); assay: imaging, Alexa647-labelled antibody 10 ug/mL at 4 C on NBE cells; signal per nuclei, normalised to the highest cell line
Method: as §2, §3

[8] = target: T2, human HER2 expressed on cells (cancer …); assay: imaging, Alexa647-labelled antibody 10 ug/mL at 4 C on BT483 cells; signal per nuclei, normalised to the highest cell line
Method: (§4) To test the ability of bispecific anti-HER2xAPLP2 molecules described herein to bind to cells lines expressing various levels of HER2, a high content imaging assay was performed. […] Cells were plated on collagen-coated, black wall, 96-well, optical plates (Greiner, Cat #655936) at 2.5×10⁵ cells per well in their appropriate culture media, which is described for each cell line/culture in Table 6, and incubated overnight at 37° C. in 5% CO₂.
as §2, §3

[9] = target: T2, human HER2 expressed on cells (cancer …); assay: imaging, Alexa647-labelled antibody 10 ug/mL at 4 C on MDA-MB-468 cells; signal per nuclei, normalised to the highest cell line
Method: as §2, §3

[10] = target: T2, human HER2 expressed on cells (cancer …); assay: imaging, Alexa647-labelled antibody 10 ug/mL at 4 C on T47D cells; signal per nuclei, normalised to the highest cell line
Method: as §2, §3

[11] = target: T2, human HER2 expressed on cells (cancer …); assay: imaging, Alexa647-labelled antibody 10 ug/mL at 4 C on MCF7 cells; signal per nuclei, normalised to the highest cell line
Method: as §2, §3

[12] = target: T2, human HER2 expressed on cells (cancer …); assay: imaging, Alexa647-labelled antibody 10 ug/mL at 4 C on SKBR3 cells; signal per nuclei, normalised to the highest cell line
Method: as §4, §2, §3

[13] = target: T2, human HER2 expressed on cells (cancer …); assay: cell-based or functional assay
[14] = target: T3, human HER2 extracellular domain expressed with a C-terminal myc-myc-hexahistidine tag (human, UniProt P04626 23-652); assay: SPR (Biacore 4000), antibody captured on anti-human Fc, hHER2-MMH injected, 37 C
T3 construct: also called hHER2-MMH; HER2.mmh
Method: as §1

Binder	90 nM hAPLP2-MMH Bound (RU) [1]	Kd [1]	t½ [1]	100 nM hAPLP2-MMH Bound (RU) [2]	Kd [2]	t½ [2]	IC50 (nM) of cell killing, JIMT-1 cells, 6 days, nuclei count [13]	further results
B1	36.6 RU	11.2 nM	10.9 min	34 RU	176 nM	1.3 min	–	–
B2	–	–	–	-3 RU	–	–	–	–
B3	52.1 RU	21.7 nM	0.5 min	48 RU	899 nM	0.03 min	–	–
B4	–	–	–	24 RU	976 nM	0.04 min	–	Antibody bound (% of highest) [3]: 17%; Antibody bound (% of highest) [4]: 37%; Antibody bound (% of highest) [5]: 7%; Antibody bound (% of highest) [6]: 28%; Antibody bound (% of highest) [7]: 8%; Antibody bound (% of highest) [8]: 22%; Antibody bound (% of highest) [9]: 1%; Antibody bound (% of highest) [10]: 8%; Antibody bound (% of highest) [11]: 7%; Antibody bound (% of highest) [12]: 100%
B5	–	–	–	–	–	–	0.07 nM	–
B6	–	–	–	–	–	–	0.75 nM	–
B7	–	–	–	–	–	–	0.2 nM	–
B8	–	–	–	0 RU	–	–	–	binding result [2]: no binding (tested: 300 nM highest concentration injected)
B9	–	–	–	–	–	–	0.9 nM	–
B10	–	–	–	–	–	–	0.13 nM	–
B11	–	–	–	–	–	–	0.3 nM	–
B12	17.1 RU	9.98 nM	12.2 min	23 RU	235 nM	1.1 min	–	Antibody bound (% of highest) [3]: 17%; Antibody bound (% of highest) [4]: 30%; Antibody bound (% of highest) [5]: 4%; Antibody bound (% of highest) [6]: 25%; Kd [14]: 3.37 nM; t½ [14]: 16 min; Antibody bound (% of highest) [7]: 5%; Antibody bound (% of highest) [10]: 6%; Antibody bound (% of highest) [11]: 5%; Antibody bound (% of highest) [12]: 100%
B13	60.5 RU	11.3 nM	11 min	114 RU	124 nM	1.1 min	–	–
